Measured values as given in patent US20210309746A1 (COMPASS THERAPEUTICS, published 2021).
Residue numbers refer to the chain shown, from its start.

B1: anti-CD277 monoclonal antibody mAb1 (antibody, V domains shown)
VH: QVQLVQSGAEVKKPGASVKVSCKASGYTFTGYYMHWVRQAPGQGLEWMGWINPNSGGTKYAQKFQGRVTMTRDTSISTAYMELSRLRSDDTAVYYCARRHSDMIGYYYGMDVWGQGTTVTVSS
VL: DIQMTQSPSSVSASVGDRVTITCRASQGISSWLAWYQQKPGKAPKLLIYAASSLQSGVPSRFSGSGSGTDFTLTISSLQPEDFATYYCQQATDFPPTFGGGTKVEIKR
B2: anti-CD277 antibody mAb9 (antibody, V domains shown)
VH: QVQLVQSGAEVKKPGASVKVSCKASGYTFNGYYIHWVRQAPGQGLEWMGWINSNSGGTKYAQKFQGRVTMTRDTSISTAYMELSRLRSDDTAVYYCARRHSDMIGYYYGMDVWGQGTTVTVSS
VL: DIQLTQSPSSLSASVGDRVTITCRASQSISSYLNWYQQKPGKVPKLLIYAASTLQSGVPSRFSGSGSGTDFTLTISSLQPEDFATYSCQQTNSFPPTFGQGTKVEIKR
B3: anti-CD277 antibody mAb2 (antibody, human IgG1, kappa, N297A, V domains shown)
VH: B2 VH with N30S, G31N, S53A
VL: B2 VL with L4M, S30D, S31R, V43A, T53R, S87Y, T91A, K103R, V104L
B4: anti-CD277 antibody mAb11 (antibody, human IgG1, kappa, N297A, V domains shown)
VH: B2 VH with N30S, G31N, S53A
VL: B2 VL with L4M, V43A, T53S, S87Y, T91A, S93T, K103R, V104L
B5: anti-CD277 antibody mAb3 (antibody, human IgG1, kappa, N297A, V domains shown)
VH: B2 VH
VL: B1 VL
B6: anti-CD277 antibody mAb10 (antibody, human IgG1, kappa, N297A, V domains shown)
VH: B2 VH with N30T, G31N, I34M, S53V, G57V
VL: B2 VL with L4M, V43A, T53S, S87Y, T91A, S93T, K103R, V104L
B7: anti-CD277 antibody mAb8 (antibody, human IgG1, kappa, N297A, V domains shown)
VH: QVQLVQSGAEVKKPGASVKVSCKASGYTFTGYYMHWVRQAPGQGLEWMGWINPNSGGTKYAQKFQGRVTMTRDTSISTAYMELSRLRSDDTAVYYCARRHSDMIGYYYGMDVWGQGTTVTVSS
VL: B2 VL with L4M, S30D, S31R, V43A, T53R, S87Y, T91A, K103R, V104L
B8: anti-CD277 antibody mAb7 (antibody, human IgG1, kappa, N297A, V domains shown)
VH: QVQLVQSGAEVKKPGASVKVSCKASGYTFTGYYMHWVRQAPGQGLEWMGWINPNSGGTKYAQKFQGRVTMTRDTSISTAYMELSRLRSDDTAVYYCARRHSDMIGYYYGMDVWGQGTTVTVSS
VL: B1 VL with V11L, G28D, S31V, W32Y, A34N, A50T, T92N, D93S, E105D
B9: anti-CD277 antibody mAb6 (antibody, human IgG1, kappa, N297A, V domains shown)
VH: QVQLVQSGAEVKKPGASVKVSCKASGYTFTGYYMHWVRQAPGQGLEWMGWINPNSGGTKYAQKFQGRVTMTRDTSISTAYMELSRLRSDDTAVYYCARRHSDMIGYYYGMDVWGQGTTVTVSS
VL: B1 VL with V11L, G28S, S31L, W32F, A34N, A50T, T92N, D93S, E105D
B10: anti-CD277 antibody mAb4 (antibody, human IgG1, kappa, N297A, V domains shown)
VH: B2 VH with N30T, G31N, I34M, S53V, G57V
VL: B1 VL
B11: anti-CD277 antibody mAb5 (antibody, human IgG1, kappa, N297A, V domains shown)
VH: B2 VH with N30S, G31N, S53A
VL: B1 VL

Molecular target: human BTN3A1 ectopically expressed on K32 cells (human, UniProt O00481 30-513)
Sequence (O00481 30-513 limits assumed): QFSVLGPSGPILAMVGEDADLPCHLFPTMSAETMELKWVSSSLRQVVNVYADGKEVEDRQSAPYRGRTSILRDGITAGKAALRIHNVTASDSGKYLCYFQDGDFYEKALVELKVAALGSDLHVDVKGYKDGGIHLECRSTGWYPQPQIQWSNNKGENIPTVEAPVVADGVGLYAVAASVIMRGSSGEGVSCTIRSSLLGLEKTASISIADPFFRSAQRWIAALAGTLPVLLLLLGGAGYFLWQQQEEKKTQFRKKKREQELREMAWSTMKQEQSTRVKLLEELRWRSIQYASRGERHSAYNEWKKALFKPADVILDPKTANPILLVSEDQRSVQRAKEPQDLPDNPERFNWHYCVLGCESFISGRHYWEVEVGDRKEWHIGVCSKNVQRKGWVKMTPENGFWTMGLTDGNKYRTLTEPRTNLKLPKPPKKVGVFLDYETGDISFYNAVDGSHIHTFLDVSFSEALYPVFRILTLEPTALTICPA
Test: cell-based or functional assay

Binder	IFN-γ release by purified CD4+ T cells stimulated with BTN-K32 cells	IFN-γ release by purified CD8+ T cells stimulated with BTN-K32 cells	proliferation of gated CD4+ T cells within total PBMCs co-cultured with anti-CD3/anti-CD28 coated BTN-K32 cells	proliferation of gated CD8+ T cells within total PBMCs co-cultured with anti-CD3/anti-CD28 coated BTN-K32 cells	proliferation of purified CD4+ T cells stimulated with BTN-K32 cells	proliferation of purified CD8+ T cells stimulated with BTN-K32 cells
B1	≥ 2 fold	~1300 fold	≥ 1.5 fold	≥ 1.5 fold	≥ 1.5 fold	≥ 2 fold

Molecular target: T1, human CD277 (human, UniProt O00481 30-254, limits assumed)
T1 construct: The SPR method text speaks of 'purified recombinant his tagged human CD137', apparently an error for CD277; also called BTN3A1; human CD277 polypeptides
T1 sequence (O00481 30-254 limits assumed): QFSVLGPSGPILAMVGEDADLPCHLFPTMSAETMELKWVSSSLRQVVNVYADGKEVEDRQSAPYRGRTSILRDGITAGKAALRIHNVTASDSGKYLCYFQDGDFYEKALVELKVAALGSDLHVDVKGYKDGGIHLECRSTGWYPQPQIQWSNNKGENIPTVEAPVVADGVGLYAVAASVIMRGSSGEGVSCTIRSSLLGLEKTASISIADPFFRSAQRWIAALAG
Test: SPRi (Carterra MX96), antibody printed on chip, his-tagged antigen injected, 1:1 fit
Experimental: The resulting anti-CD277 antibodies from different selection rounds were plotted on kd/kₐ double log plots. Apparent association and dissociation kinetic rate constants (kₐ and kd values) were determined on an SPRi reader (MX96, Carterra) in a running buffer of PBS-C 0.01%. […] antibodies were covalently printed on a Carboxymethyldextran hydrogel 50 L chip (Xantec bioanalytics) on a CFM (Carterra). Freshly mixed activating reagents ([…] 0.4 M EDC and […] 0.1 M sulfo-NHS in H2O) were used to activate the surface of the SPR substrate for 7 minutes. Antibodies at 10 mg/ml in acetic acid buffer pH 4.5 were used for printing for 15 minutes. The printed chip was then quenched on SPRi reader (MX96, Carterra) with 1 M ethanolamine for 15 minutes. For kinetics analysis, purified recombinant his tagged human […] (0, 2.05, 5.12, 12.8, 32, 80, 200, 500 nM) was injected sequentially. For each concentration, there was 5 minutes of association followed by 10 minutes of dissociation. Data were processed and analyzed in SPR Inspection Tool and Scrubber softwares. The kinetic data were referenced with the interstitial reference spots and double-referenced to a buffer cycle, and then fit globally to a 1:1 binding model to determine their apparent association and dissociation kinetic rate constants (kₐ and kd values). The ratio kd/kₐ was used to derive the KD value of each antigen/mAb interaction, i.e. KD=kd/kₐ.

Binder	Kd	koff	kon
B2	6.82 nM	9.71e-05 s⁻¹	14200 M⁻¹ s⁻¹
B3	2.68 nM	4.89e-05 s⁻¹	18300 M⁻¹ s⁻¹
B1	16.7 nM	0.000384 s⁻¹	23000 M⁻¹ s⁻¹
B4	5.13 nM	9.36e-05 s⁻¹	18200 M⁻¹ s⁻¹
B5	6.71 nM	0.000121 s⁻¹	18100 M⁻¹ s⁻¹
B6	4.69 nM	8.03e-05 s⁻¹	17100 M⁻¹ s⁻¹
B7	6.05 nM	0.000138 s⁻¹	22800 M⁻¹ s⁻¹
B8	6.69 nM	0.000159 s⁻¹	23700 M⁻¹ s⁻¹
B9	4.37 nM	0.000118 s⁻¹	27100 M⁻¹ s⁻¹
B10	10.1 nM	0.00019 s⁻¹	18800 M⁻¹ s⁻¹
B11	12.9 nM	0.00025 s⁻¹	19300 M⁻¹ s⁻¹
